Results as given in patent publication US20250281611A1 (BIOSCEPTRE AUST, published 2025).

Legend:
nfP2X7 CAR 1 [1] = target: T1, nfP2X7 CAR 1; assay: flow cytometry, CAR T cells, anti-His-FITC, EGFR+ over EGFR- cells
T1 construct: Expressed on T cells with truncated EGFR as marker gene; also called anti-nfP2X7 receptor CAR 1; nfP2X7 targeted CAR on EGFR+ T cells
Protocol: (§1) nfP2X₇ CAR T cells were incubated with different BRiDGE variants at saturating concentrations. […] The MFI intensity correlates with the number of secondary bound antibodies bound to the BRiDGEs that are only detected if they are bound to the CAR T cells. EGFR was used as a marker gene to detect the CAR expression. Thus, the EGFR+ T cell population was defined as the CAR expressing cells and the EGFR− T cell population was defined as the CAR negative subset. MFI: median fluorescence intensity. EGFR: epidermal growth factor receptor. BLItz: Bio-Layer interferometry (BLI) technology using HIS-tag identification tips. HIS-tag MFI Ratio: relative index that is calculated by the testing condition MFI divided by the control MFI, which corresponds to the MFI measured on EGFR+ T cells (defined as CAR positive cells) divided by the MFI measured on the EGFR− T cells (defined as CAR negative cells). […] The higher the MFIR, the stronger the binding.

nfP2X7 CAR 1 [2] = target: T1, nfP2X7 CAR 1; assay: flow cytometry, nfP2X7 CAR T cells (EGFR+), anti-His-FITC detection
Protocol: as §1

CD33 [3] = target: T2, CD33 (UniProt P20138 18-364, limits assumed); assay: flow cytometry, MOLM-13 cells, anti-His-FITC detection, ratio to no bridge
T2 construct: whole, on cells; also called Siglec-3; CD33 on MOLM-13 cells
T2 sequence (P20138 18-364 limits assumed): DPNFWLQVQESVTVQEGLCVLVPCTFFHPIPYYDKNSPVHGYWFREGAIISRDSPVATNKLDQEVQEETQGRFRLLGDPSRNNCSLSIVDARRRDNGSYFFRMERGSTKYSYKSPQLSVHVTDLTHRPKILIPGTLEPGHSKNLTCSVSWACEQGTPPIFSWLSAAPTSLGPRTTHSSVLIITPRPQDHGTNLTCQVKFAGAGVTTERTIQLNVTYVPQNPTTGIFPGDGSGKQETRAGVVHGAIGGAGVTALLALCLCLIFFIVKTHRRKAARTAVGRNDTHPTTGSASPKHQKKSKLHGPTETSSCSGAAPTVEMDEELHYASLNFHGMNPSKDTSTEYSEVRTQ
Protocol: (§2) MOLM-13 cells were incubated with different CD33 BRIDGE variants at saturating concentrations. […] The MFI intensity correlates with the number of secondary antibodies bound to the CD33 BRIDGE variants that are only detected if they are bound to the MOLM-13 cells. MFI: median fluorescence intensity. BLItz: Bio-Layer interferometry (BLI) technology using HIS-tag identification tips. […] The higher the MFIR, the stronger the binding.

nfP2X7 CAR 1 [4] = target: T1, nfP2X7 CAR 1; assay: flow cytometry, CAR T cells, anti-His-FITC, EGFR+ MFI over background 0.4
Protocol: as §1

CD33 [5] = target: T2, CD33; assay: flow cytometry, MOLM-13 cells, anti-His-FITC detection
Protocol: as §2

| HisTag MFI Ratio of EGFR+/EGFR- (nfP2X7 CAR 1 [1]) | MFI HisTag FITC in EGFR+ Population (nfP2X7 CAR 1 [2]) | MFIR HisTag FITC (CD33 [3]) | HisTag MFI Ratio (background 0.4) (nfP2X7 CAR 1 [4]) | MFI HisTag FITC (CD33 [5]) | Binder |
| --- | --- | --- | --- | --- | --- |
| 3.4 | 1.79 | 8.64 | 4.5 | 5.79 | CD33 BRIDGE variant B18 (Fab, Lintuzumab-based Fab bridging molecule) light: GHNYTTRNILPGLNITSTFHKTSGSGKGGGGSEPKSSDKTHTGGGGSDIQMTQSPSSLSASVGDRVTITCRASESVDNYGISFMNWFQQKPGKAPKLLIYAASNQGSGVPSRFSGSGSGTDFTLTISSLQPDDFATYYCQQSKEVPWTFGQGTKVEIKRTVAAPSVFIFPPSDEQLKSGTASVVCLLNNFYPREAKVQWKVDNALQSGNSQESVTEQDSKDSTYSLSSTLTLSKADYEKHKVYACEVTHQGLSSPVTKSFNRGECHHHHHH heavy: QVQLVQSGAEVKKPGSSVKVSCKASGYTFTDYNMHWVRQAPGQGLEWIGYIYPYNGGTGYNQKFKSKATITADESTNTAYMELSSLRSEDTAVYYCARGRPAMDYWGQGTLVTVSSASTKGPSVFPLAPSSKSTSGGTAALGCLVKDYFPEPVTVSWNSGALTSGVHTFPAVLQSSGLYSLSSVVTVPSSSLGTQTYICNVNHKPSNTKVDKKVEPKSCHHHHHH |
| 2.9 | 1.29 | 7.99 | 3.2 | 5.35 | CD33 BRIDGE variant B19 (Fab, V domains shown, Lintuzumab-based Fab bridging molecule) VH: QVQLVQSGAEVKKPGSSVKVSCKASGYTFTDYNMHWVRQAPGQGLEWIGYIYPYNGGTGYNQKFKSKATITADESTNTAYMELSSLRSEDTAVYYCARGRPAMDYWGQGTLVTVSS VL: DIQMTQSPSSLSASVGDRVTITCRASESVDNYGISFMNWFQQKPGKAPKLLIYAASNQGSGVPSRFSGSGSGTDFTLTISSLQPDDFATYYCQQSKEVPWTFGQGTKVEIKR |
| 3.4 | 1.82 | 10.9 | 4.6 | 7.29 | CD33 BRIDGE variant B25 (Fab, V domains shown, Lintuzumab-based Fab bridging molecule) VH: QVQLVQSGAEVKKPGSSVKVSCKASGYTFTDYNMHWVRQAPGQGLEWIGYIYPYNGGTGYNQKFKSKATITADESTNTAYMELSSLRSEDTAVYYCARGRPAMDYWGQGTLVTVSS VL: DIQMTQSPSSLSASVGDRVTITCRASESVDNYGISFMNWFQQKPGKAPKLLIYAASNQGSGVPSRFSGSGSGTDFTLTISSLQPDDFATYYCQQSKEVPWTFGQGTKVEIKR |

More lines, now with the values behind:

| Binder | HisTag MFI Ratio of EGFR+/EGFR- (nfP2X7 CAR 1 [1]) | MFI HisTag FITC in EGFR+ Population (nfP2X7 CAR 1 [2]) | MFIR HisTag FITC (CD33 [3]) | HisTag MFI Ratio (background 0.4) (nfP2X7 CAR 1 [4]) | MFI HisTag FITC (CD33 [5]) |
| --- | --- | --- | --- | --- | --- |
| CD33 BRIDGE variant B12 (Fab, Lintuzumab-based Fab bridging molecule) light: GHNYTTRNILPGLNITSTFHKTSGSGKGGGGSEPKSSDKTHTGSDIQMTQSPSSLSASVGDRVTITCRASESVDNYGISFMNWFQQKPGKAPKLLIYAASNQGSGVPSRFSGSGSGTDFTLTISSLQPDDFATYYCQQSKEVPWTFGQGTKVEIKRTVAAPSVFIFPPSDEQLKSGTASVVCLLNNFYPREAKVQWKVDNALQSGNSQESVTEQDSKDSTYSLSSTLTLSKADYEKHKVYACEVTHQGLSSPVTKSFNRGECHHHHHH heavy: QVQLVQSGAEVKKPGSSVKVSCKASGYTFTDYNMHWVRQAPGQGLEWIGYIYPYNGGTGYNQKFKSKATITADESTNTAYMELSSLRSEDTAVYYCARGRPAMDYWGQGTLVTVSSASTKGPSVFPLAPSSKSTSGGTAALGCLVKDYFPEPVTVSWNSGALTSGVHTFPAVLQSSGLYSLSSVVTVPSSSLGTQTYICNVNHKPSNTKVDKKVEPKSCHHHHHH | 3.1 | 1.55 | 9.07 | 3.9 | 6.08 |
| CD33 BRIDGE variant B17 (Fab, Lintuzumab-based Fab bridging molecule) light: GHNYTTRNILPGLNITSTFHKTSGSGKGSEPKSSDKTHTGGGGSDIQMTQSPSSLSASVGDRVTITCRASESVDNYGISFMNWFQQKPGKAPKLLIYAASNQGSGVPSRFSGSGSGTDFTLTISSLQPDDFATYYCQQSKEVPWTFGQGTKVEIKRTVAAPSVFIFPPSDEQLKSGTASVVCLLNNFYPREAKVQWKVDNALQSGNSQESVTEQDSKDSTYSLSSTLTLSKADYEKHKVYACEVTHQGLSSPVTKSFNRGECHHHHHH heavy: QVQLVQSGAEVKKPGSSVKVSCKASGYTFTDYNMHWVRQAPGQGLEWIGYIYPYNGGTGYNQKFKSKATITADESTNTAYMELSSLRSEDTAVYYCARGRPAMDYWGQGTLVTVSSASTKGPSVFPLAPSSKSTSGGTAALGCLVKDYFPEPVTVSWNSGALTSGVHTFPAVLQSSGLYSLSSVVTVPSSSLGTQTYICNVNHKPSNTKVDKKVEPKSCHHHHHH | 3.2 | 1.58 | 11 | 4 | 7.36 |
| CD33 BRIDGE variant B16 (Fab, Lintuzumab-based Fab bridging molecule) light: GHNYTTRNILPGLNITSTFHKTSGSGKEPKSSDKTHTGGGGSDIQMTQSPSSLSASVGDRVTITCRASESVDNYGISFMNWFQQKPGKAPKLLIYAASNQGSGVPSRFSGSGSGTDFTLTISSLQPDDFATYYCQQSKEVPWTFGQGTKVEIKRTVAAPSVFIFPPSDEQLKSGTASVVCLLNNFYPREAKVQWKVDNALQSGNSQESVTEQDSKDSTYSLSSTLTLSKADYEKHKVYACEVTHQGLSSPVTKSFNRGECHHHHHH heavy: QVQLVQSGAEVKKPGSSVKVSCKASGYTFTDYNMHWVRQAPGQGLEWIGYIYPYNGGTGYNQKFKSKATITADESTNTAYMELSSLRSEDTAVYYCARGRPAMDYWGQGTLVTVSSASTKGPSVFPLAPSSKSTSGGTAALGCLVKDYFPEPVTVSWNSGALTSGVHTFPAVLQSSGLYSLSSVVTVPSSSLGTQTYICNVNHKPSNTKVDKKVEPKSCHHHHHH | 3.4 | 1.83 | 9.36 | 4.6 | 6.27 |
| CD33 BRIDGE variant B15 (Fab, Lintuzumab-based Fab bridging molecule) light: GHNYTTRNILPGLNITSGGGGSEPKSSDKTHTGGGGSDIQMTQSPSSLSASVGDRVTITCRASESVDNYGISFMNWFQQKPGKAPKLLIYAASNQGSGVPSRFSGSGSGTDFTLTISSLQPDDFATYYCQQSKEVPWTFGQGTKVEIKRTVAAPSVFIFPPSDEQLKSGTASVVCLLNNFYPREAKVQWKVDNALQSGNSQESVTEQDSKDSTYSLSSTLTLSKADYEKHKVYACEVTHQGLSSPVTKSFNRGECHHHHHH heavy: QVQLVQSGAEVKKPGSSVKVSCKASGYTFTDYNMHWVRQAPGQGLEWIGYIYPYNGGTGYNQKFKSKATITADESTNTAYMELSSLRSEDTAVYYCARGRPAMDYWGQGTLVTVSSASTKGPSVFPLAPSSKSTSGGTAALGCLVKDYFPEPVTVSWNSGALTSGVHTFPAVLQSSGLYSLSSVVTVPSSSLGTQTYICNVNHKPSNTKVDKKVEPKSCHHHHHH | 3.1 | 1.5 | 11.4 | 3.8 | 7.64 |
| CD33 BRIDGE variant B13 (Fab, V domains shown, Lintuzumab-based Fab bridging molecule) VH: QVQLVQSGAEVKKPGSSVKVSCKASGYTFTDYNMHWVRQAPGQGLEWIGYIYPYNGGTGYNQKFKSKATITADESTNTAYMELSSLRSEDTAVYYCARGRPAMDYWGQGTLVTVSS VL: DIQMTQSPSSLSASVGDRVTITCRASESVDNYGISFMNWFQQKPGKAPKLLIYAASNQGSGVPSRFSGSGSGTDFTLTISSLQPDDFATYYCQQSKEVPWTFGQGTKVEIKR | 2.9 | 1.35 | 10.1 | 3.4 | 6.78 |
| CD33 BRIDGE variant B20 (Fab, V domains shown, Lintuzumab-based Fab bridging molecule) VH: QVQLVQSGAEVKKPGSSVKVSCKASGYTFTDYNMHWVRQAPGQGLEWIGYIYPYNGGTGYNQKFKSKATITADESTNTAYMELSSLRSEDTAVYYCARGRPAMDYWGQGTLVTVSS VL: DIQMTQSPSSLSASVGDRVTITCRASESVDNYGISFMNWFQQKPGKAPKLLIYAASNQGSGVPSRFSGSGSGTDFTLTISSLQPDDFATYYCQQSKEVPWTFGQGTKVEIKR | 2.9 | 1.29 | 8.46 | 3.2 | 5.67 |
| CD33 BRIDGE variant B14 (Fab, V domains shown, Lintuzumab-based Fab bridging molecule) VH: QVQLVQSGAEVKKPGSSVKVSCKASGYTFTDYNMHWVRQAPGQGLEWIGYIYPYNGGTGYNQKFKSKATITADESTNTAYMELSSLRSEDTAVYYCARGRPAMDYWGQGTLVTVSS VL: DIQMTQSPSSLSASVGDRVTITCRASESVDNYGISFMNWFQQKPGKAPKLLIYAASNQGSGVPSRFSGSGSGTDFTLTISSLQPDDFATYYCQQSKEVPWTFGQGTKVEIKR | 2.9 | 1.44 | 9.97 | 3.6 | 6.68 |
